Our source for the Kd values is patent publication US20030236190A1 (published 2003).

Non-standard residues stand in square brackets, D forms with d. No end group written: not given here. *: point of attachment. Biotin = O=C1N[C@H]2[C@H](CS[C@H]2CCCCC(=O)*)N1; Bpa = N[C@@H](Cc1ccc(C(=O)c2ccccc2)cc1)C(=O)O; Tyr(3-I) = N[C@@H](Cc1ccc(O)c(I)c1)C(=O)O

For the assay, the target named is human insulin receptor (HIR) (human, UniProt P06213 28-1382, limits assumed). Nature of the assay: 125I-insulin competition, solubilised HIR.

With SLEEEWAQIECEVYGRGCPSESFYDWFERQL (not fully specified; N-terminal acetyl) [S597], binding was characterised by a dissociation constant (Kd) of 0.0085 nM. This lies in the picomolar range.

Turning to LEEEWAQIQREVWHS[dP]ASESF[dY]D[dW]FERQL [S595], binding was characterised by a dissociation constant (Kd) of 0.62 nM.

SLEEEWAQVECEVYGRGCPS [S547] yielded a dissociation constant (Kd) of 49 nM.

As for SLEEEWAQVECEVWGRGCPS [S548], the Kd came to 4.1 nM. This Kd lies about 12-fold lower than the previous one.

Take SLEEEWAQIECEVWGRCWHHSFYDWFERQL [S594]: binding was put at a Kd of 0.071 nM.

Regarding SIEEEWAQIKCDVWGRGCPSY [S593], binding was characterised by a dissociation constant (Kd) of 0.022 nM.

The molecule SLEEEWAQIECEVWGRGCSGSLDESFYDWFERQL [S561] had a Kd of 0.015 nM.

LEEEWAQIECEV[Tyr(3-I)]GRGCSGSLDESFYDWFERQLG (cysteine pairing not given here) [S590] displayed a Kd of 0.058 nM.

LEEEWAQVECEV[Tyr(3-I)]GRGCSGSLDESFYDWFERQLG (cysteine pairing not given here) [S588] gave an equilibrium dissociation constant (Kd) of 0.18 nM.

B1: S591 (peptide)
peptide: LEEEWAQIECEVWGRGCSGSLDESF[Tyr(3-I)]DWFERQLG
modifications: not fully specified (bridges); printed as LEEEWAQIECEVWGRGCSGSLDESF-IodoTyr-DWFERQLG; cysteine pairing not given here
B1 displayed an equilibrium dissociation constant (Kd) of 0.13 nM.

The molecule SLEEEWAQVECEVYGRGCPPGLLDESFYHWFDRQLR [S553] had a dissociation constant Kd of 0.0073 nM.

Take SLEEEWAQIECEVWGRGCPSY [S592]: the affinity, expressed as Kd, was 1.7 nM.

SLEEEWAQIEEVWGRSESFYDWFERQLG [S572]: the Kd was determined as 4.8 nM.

Take Ac-SLEEEWAQIQEDLYGANHNESFYDWFERQL [S603]: the dissociation constant Kd was 0.015 nM.

The molecule SLEEEWAQIQHELWPVEKGESFYDWFERQL [S605] yielded a Kd of 0.094 nM. This Kd lies about 6.3-fold higher than the previous one.

For SLEEEWAQIEEVWGRGPSESFYDWFERQLG (label printed as 3569; also called 3569) [S569], the Kd was 0.15 nM.

In the case of SLEEEWAQIESEVWGRSESFYDWFERQLG [S573], the Kd was 0.036 nM.

SLEEEWAQIECEVWGRGCPKGFYGWFRRRG [S582] registered an equilibrium dissociation constant (Kd) of 2.5 nM. This Kd is about 69-fold higher than that of the molecule before.

For the molecule GSLDESFYDWFERQLGK (N-terminal acetyl; POX (not explained) between G16 and K17) [S550], the Kd is 40 nM.

For the molecule Ac-SIEEEWAQIKCDVWGRGPSESFYDWFERQLG [S568], the affinity, expressed as Kd, was 0.0043 nM.

Turning to SLEEEWAQIQHELYGPAESESFYD[dW]FERQL [S596], the Kd was 0.045 nM. This Kd lies about 10-fold higher than the previous one.

Take SLEEEWAQIECEVWGRGCPKGFYGWFRRRRG [S584]: the equilibrium dissociation constant (Kd) was determined as 9.3 nM.

With SLEEEWAQIQAEVYGNPNSESFYDWFERQL [S602], binding was put at a Kd of 0.031 nM.

In turn, SLEEEWAQVECEVYGRGCXESFYDWFERQLG (not fully specified; X19 = βturn (unit not explained)) [S580] gave a dissociation constant Kd of 0.012 nM. Against the preceding molecule, the Kd is about 2.6-fold lower.

As for SIEEEWAQIKCDVWGRCSESFYDWFERQL [S562], the Kd worked out at 0.018 nM.

In the case of Ac-SIEEEWAQIKCDVWGRGSESFYDWFERQL [S600], the dissociation constant Kd was found to be 0.0076 nM.

As to SLEEEWAQIQCEVWGRCSESFYDWFERQL [S564], binding was characterised by a dissociation constant (Kd) of 0.013 nM.

SLEEEWAQIESEVWGRXESFYDWFERQLG (X17 = βturn (unit not explained)) [S581]: the dissociation constant (Kd) was found to be 0.012 nM.

The molecule SLEEEWAQVECEVYGRGCSGSLDESFYDWFERQLG [S549] showed a Kd of 0.013 nM.

SLEEEWAQIECEVYGRGCPSESFYDWFERQLG [S554] returned an equilibrium dissociation constant (Kd) of 0.0064 nM.

Take SLEEEWAQIEAEVWGRGAPSESFYDWFERQLG [S574]: the Kd came out at 0.0092 nM.

For the molecule SLEEEWAQVECEVYGRGCPSESFYDWF[dV]RQLG (cysteine pairing not given here) [S555], the affinity, expressed as Kd, was 0.057 nM.

B2: S546 (peptide)
peptide: SLEEEWAQVECEV[Bpa]GRGCPSGSLDESFYDWFERQ[Bpa]GK(Biotin)
modifications: not fully specified (bridges); printed as SLEEEWAQVECEV-Bpa-GRGCPSGSLDESFYDWFERQ-Bpa-GK(Biotin); cysteine pairing not given here
The molecule B2 had a dissociation constant Kd of 26 nM.

The molecule SLEEEWAQIECEVWGRGCSESFYDWFERQL [S559] returned a Kd of 0.021 nM.

As for SIEEEWAQIKCDVWGRGCSESFYDWFERQL [S556], the Kd was found to be 0.032 nM.

As to SLEEEWAQIQCEVWGR[dN][dC]SESFYDWFERQL (cysteine pairing not given here) [S563], binding was characterised by a dissociation constant (Kd) of 0.014 nM.

Take SLEEEWAQIQEDLYGANHNESFYDWFERQL [S601]: the equilibrium dissociation constant (Kd) stood at 0.18 nM.

SLEEEWAQIEEVWGRPSESFYDWFERQLG [S570] came in with a dissociation constant (Kd) of 0.73 nM.

The molecule SLEEEWAQIEEVWGRGSESFYDWFERQLG [S571] came in with a Kd of 1.6 nM. Against the preceding molecule, the Kd is about 2.2-fold higher.

What is called Kd is the constant that tells how readily two partners part at equilibrium. Read a low Kd as tighter binding.
